In patent US20030181408A1, “Genes essential for microbial proliferation and antisense thereto” (priority 1999, published 2003):
Converted amounts (≈) assume the structure as drawn. Where a SMILES comes first, the peptide text is derived from it. Bridges are numbered along the chain shown (N, C = ends). [ ]: non-standard residue; d: D form. The star is where a group is joined. Ileψ(thiazoline)Cys = CC[C@H](C)[C@H](N)C1=N[C@H](C(=O)*)CS1; dOrn = NCCC[C@@H](N)C(=O)O

Assays:
[1] = test system: bacterial strain engineered for expression of an antisense against rplL and rplJ (50S ribosomal subunit proteins); assay: microbe, parasite or virus in culture; format: cell-based, E. coli; settings: read-out: IC50 (+I)
Experimental: Antibiotics of various chemical classes and modes of action were purchased from Sigma Chemicals (St. Louis, Mo.). Stock solutions were prepared by dissolving each antibiotic in an appropriate aqueous solution based on information provided by the manufacturer. The final working solution of each antibiotic contained no more than 0.2% (w/v) of any organic solvent. To determine their potency against a bacterial strain engineered for expression of an antisense against a proliferation-required gene encoding 50S ribosomal protein, each antibiotic was serially diluted two or three fold in growth medium supplemented with the appropriate antibiotic for maintenance of the anti-sense construct. At least ten dilutions were prepared for each antibiotic. 25 μL aliquots of each dilution were transferred to discrete wells of a 384-well microplate (the assay plate) using a multi-channel pipette. Quadruplicate wells were used for each dilution of an antibiotic under each treatment condition (plus and minus inducer). Each assay plate contained twenty wells for cell growth controls (growth media replacing antibiotic), ten wells for each treatment (plus and minus inducer, in this example IPTG). Assay plates were usually divided into the two treatments: half the plate containing induced cells and an appropriate concentrations of inducer (in this example IPTG) to maintain the state of induction, the other half containing non-induced cells in the absence of IPTG.
Cells for the assay were prepared as follows. Bacterial cells containing a construct, from which expression of antisense nucleic acid against rplL and rplJ, which encode proliferation-required 50S ribosomal subunit proteins, is inducible in the presence of IPTG, were grown into exponential growth (OD600 0.2 to 0.3) and then diluted 1:100 into fresh media containing either 400 μM or 0 μM inducer (IPTG). These cultures were incubated at 37° C. for 2.5 hr. After a 2.5 hr incubation, induced and non-induced cells were respectively diluted into an assay medium at a final OD600 value of 0.0004. The medium contained an appropriate concentration of the antibiotic for the maintenance of the anti-sense construct. In addition, the medium used to dilute induced cells was supplemented with 800 μM IPTG so that addition to the assay plate would result in a final IPTG concentration of 400 μM. Induced and non-induced cell suspensions were dispensed (25 μl/well) into the appropriate wells of the assay plate as discussed previously. The plate was then loaded into a plate reader, incubated at constant temperature, and cell growth was monitored in each well by the measurement of light scattering at 595 nm. Growth was monitored every 5 minutes until the cell culture attained a stationary growth phase. For each concentration of antibiotic, a percentage inhibition of growth was calculated at the time point corresponding to mid-exponential growth for the associated control wells (no antibiotic, plus or minus IPTG). For each antibiotic and condition (plus or minus IPTG), a plot of percent inhibition versus log of antibiotic concentration was generated and the IC50 determined.

[2] = test system: E. coli; assay: Inhibition of E. coli proliferation after IPTG induction of antisense clones (liquid growth curves, dilution spotting on plates); format: cell-based, Escherichia coli; settings: for effect of antisense expression on E. coli growth after IPTG induction: 1 mM IPTG
Experimental: (§1) To study the effects of transcriptional induction in liquid medium, growth curves were carried out by back diluting cultures 1:200 into fresh media with or without 1 mM IPTG and measuring the OD450 every 30 minutes (min). To study the effects of transcriptional induction on solid medium, 10^2, 10^3, 10^4, 10^5, 10^6, 10^7 and 10^8 fold dilutions of overnight cultures were prepared. Aliquots of from 0.5 to 3 μl of these dilutions were spotted on selective agar plates with or without 1 mM IPTG. After overnight incubation, the plates were compared to assess the sensitivity of the clones to IPTG.
(§2) Molecule No. EcXA059, encoding a portion of the ypjA gene of Escherichia coli, was either transformed directly into Enterobacter cloacae, Salmonella typhimurium and/or Klebsiella pneumoniae or subdloned into an expression vector functional in these species and the subclones transformed into these organisms. Suitable expression vectors are well known in the art. These expression vectors were introduced into Enterobacter cloacae, Salmonella typhimurium and/or Klebsiella pneumoniae cells that were then assayed for growth inhibition according to the method of Example 1. After growth in liquid culture, cells were plated at various serial dilutions and a score determined by calculating the log difference in growth for INDUCED vs. UNINDUCED antisense RNA expression as determined by the maximum 10 fold dilution at which a colony was observed. If there was no effect of antisense RNA expression in one organism, the clone is given a score of zero “0” in that organism. In contrast, a score of “8” means that 10^8 times more cells were required to observe a colony formed on the induced state than in the non-induced state under the conditions used and in that organism.

[3] = test system: Salmonella typhimurium; assay: Growth inhibition by IPTG-induced antisense RNA expression in Salmonella typhimurium (induced vs. uninduced serial dilution plating); format: cell-based
Experimental: as §1, §2
(§3) Expression vectors which inhibited growth of E. coli upon induction of antisense RNA expression with IPTG were transformed directly into Enterobacter cloacae, Klebsiella pneumonia or Salmonella typhimurium. The transformed cells were then assayed for growth inhibition according to the method of Example 1. After growth in liquid culture, cells were plated at various serial dilutions and a score determined by calculating the log difference in growth for INDUCED vs. UNINDUCED antisense RNA expression as determined by the maximum 10 fold dilution at which a colony was observed. If there was no effect of antisense RNA expression in a microorganism, the clone is minus in Table V below. In contrast, a positive in Table V below means that at least 10 fold more cells were required to observe a colony on the induced plate than on the non-induced plate under the conditions used and in that microorganism.

[4] = test system: Klebsiella pneumoniae; assay: Growth inhibition by IPTG-induced antisense RNA expression in Klebsiella pneumoniae (induced vs. uninduced serial dilution plating); format: cell-based
Experimental: as §1, §2, §3

[5] = test system: Enterobacter cloacae; assay: Growth inhibition by IPTG-induced antisense RNA expression in Enterobacter cloacae (induced vs. uninduced serial dilution plating); format: cell-based
Experimental: as §1, §2, §3

CC[C@H](C)[C@H](N)C1=N[C@H](C(=O)N[C@@H](CC(C)C)C(=O)N[C@H](CCC(=O)O)C(=O)N[C@H](C(=O)N[C@H]2CCCCNC(=O)[C@H](CC(N)=O)NC(=O)[C@@H](CC(=O)O)NC(=O)[C@H](Cc3cnc[nH]3)NC(=O)[C@@H](Cc3ccccc3)NC(=O)[C@H]([C@@H](C)CC)NC(=O)[C@@H](CCCN)NC2=O)[C@@H](C)CC)CS1 [Bacitracin] ({Ileψ(thiazoline)Cys}-L[dE]IK[dOrn]I[dF]H[dD]N; lactam 4-C)
IC50 [1]: 4670 µg/mL (≈ 3280 µM)

CO/N=C(\C(=O)N[C@@H]1C(=O)N2C(C(=O)O)=C(COC(C)=O)CS[C@H]12)c1csc(N)n1 [Cefotaxime]
IC50 [1]: 0.0241 µg/mL (≈ 0.0529 µM)

CN(C)c1ccc(O)c2c1C[C@H]1C[C@H]3[C@H](N(C)C)C(O)=C(C(N)=O)C(=O)[C@@]3(O)C(O)=C1C2=O [Minocycline]
IC50 [1]: 0.00389 µg/mL (≈ 0.0085 µM)

O=C(N[C@H](CO)[C@H](O)c1ccc([N+](=O)[O-])cc1)C(Cl)Cl [Chloramphenicol]
IC50 [1]: 0.00151 µg/mL (≈ 0.00467 µM)

CN[C@@H]1[C@H](O)[C@H](NC)[C@H]2O[C@@]3(O)C(=O)C[C@@H](C)O[C@H]3O[C@@H]2[C@H]1O [Spectinomycin]
IC50 [1]: < 0.15 µg/mL

CCn1cc(C(=O)O)c(=O)c2ccc(C)nc21 [Nalidixic acid]
IC50 [1]: 6.02 µg/mL (≈ 25.9 µM)

NC[C@H]1O[C@H](O[C@H]2[C@H](O)[C@@H](O[C@H]3O[C@H](CO)[C@@H](O)[C@H](N)[C@H]3O)[C@H](N)C[C@@H]2N)[C@H](N)C[C@@H]1O [Tobramycin]
IC50 [1]: 0.0705 µg/mL (≈ 0.151 µM)

B1: EcXA082: antisense clone insert, E. coli genes hybC; hybB (nucleic acid, listed as Escherichia coli)
DNA: TGCTTTGCTCGCCTCATGACGATTATGATCGTTTTGTTTTAAAGGAGGAAGTATCGGCAGTAGACGAATGAGTACGATGTAAGCGCAAATCTCAATAGCCACAAAACCAATAGAAATCAACAGTTCTTCCCAGGTCGGGAAGTA
effect of antisense expression on E. coli growth after IPTG induction [2]: reduction in cell growth
Sensitivity of S. typhimurium to antisense nucleic acid (growth inhibition, induced vs. uninduced) [3]: −
Sensitivity of K. pneumoniae to antisense nucleic acid (growth inhibition, induced vs. uninduced) [4]: −

B2: EcXA062: antisense clone insert, E. coli gene rep (nucleic acid, listed as Escherichia coli)
DNA: CGCGTGGAGAGTCATCAGTTGCACCTGATCCAGCTCTTCTTCACTCTCACCACGCTCNATCATGTCGCGCAAAGTAAAGCGCGTCACCACCTGGGTGAGCGTCATCGGCTCATCCAGTTCACTGCCTTCCAGCATCTCCGTCATCCAGCTAAACAGTTGGTTGACGTTCTTCATGCGCATTTCGGCGGCTTTCGGGCTGGGCGATGTTTCGTACAGCCAGGATTCATAATCCATGCCATGGATCAGATCACGCACCGCGGCAATCGGCTCCCGCTCCGCCAGACGCTGGATTTCTGCCAACCAGTGAGTGAAGCGGGTCAATGCTTCA
modifications: misc_feature (1)...(328): n = A,T,C or G
notes: antisense clone insert, E. coli gene rep
effect of antisense expression on E. coli growth after IPTG induction [2]: reduction in cell growth
Sensitivity of E. cloacae to antisense nucleic acid (growth inhibition, induced vs. uninduced) [5]: −
Sensitivity of S. typhimurium to antisense nucleic acid (growth inhibition, induced vs. uninduced) [3]: −
Sensitivity of K. pneumoniae to antisense nucleic acid (growth inhibition, induced vs. uninduced) [4]: −

B3: EcXA104: antisense clone insert, E. coli gene hsdS (nucleic acid, listed as Escherichia coli)
DNA: GACGCGGCGAACGATTTCGGCTTGTTCTTTTACTGGAGGTAATAAAACAACTTGGGATTTGATATCTTTTCCTGAAATACCTTTTTGACCAGAAGTTGTTTTCACGCAGTTCATCATTGCATTTCGTGCTGAGGGGGATGAAAAAAATATTTCGATATATTCTGGTAAAGCATCTTT
effect of antisense expression on E. coli growth after IPTG induction [2]: reduction in cell growth

B4: EcXA069: antisense clone insert, E. coli genes RplD; rplC (nucleic acid, listed as Escherichia coli)
DNA: TGAAATNCGACCGAAGGTAGTTTCGGAAACAGTCAGCGCGCTCTGCGCGTCTTTCAATACTAATTCCATTGCTATCTCCTTACGCCTTCACAGCTGGTTTAACGATCAGGTCGCTACCGGTTGCACCCGGGACAGCACCTTTAACCAGCAGCAGGT
modifications: misc_feature (1)...(156): n = A,T,C or G
notes: antisense clone insert, E. coli genes RplD; rplC
Sensitivity of E. cloacae to antisense nucleic acid (growth inhibition, induced vs. uninduced) [5]: + (a positive in Table V below means that at least 10 fold more cells were required to observe a colony on the induced plate than on the non-induced plate)
Sensitivity of S. typhimurium to antisense nucleic acid (growth inhibition, induced vs. uninduced) [3]: −
Sensitivity of K. pneumoniae to antisense nucleic acid (growth inhibition, induced vs. uninduced) [4]: −

B5: EcXA072: antisense clone insert, E. coli gene recJ (nucleic acid, listed as Escherichia coli)
DNA: GATTTTTACCGGATTAATTTTAAACATGGTCTGATTTCTTTTATTGAGCTAGTCAAAATGCGGTGATAAGAGCGGGATTGTCCCAATCCACGCTCTTTTTTATAGAGAAGATGACGCTAAATTGGCCAGATATTGTCGATGATAATTTG
effect of antisense expression on E. coli growth after IPTG induction [2]: reduction in cell growth
Sensitivity of E. cloacae to antisense nucleic acid (growth inhibition, induced vs. uninduced) [5]: −

B6: EcXA059: antisense clone insert, portion of the ypjA gene of Escherichia coli (nucleic acid, listed as Escherichia coli)
DNA: NACCANGANTGGGACCCAAATGAAAATTGAACTGAAGATTACAATCAATTTAACANCAAGTTACACAACCAATTCAGACTCCGCCAGCCCACCAATCATGATTGGACGGTGTAAGGACAACACCAACAAAAACAGGAAGTTAGAAGTCTNAGCAAAACACCGACCAGACGGTGAGGAGACATAAAAGGATACGCAAAGGAGCCGCGGCTCCTGGTAACATGAAAGCCCACAGATGTGGGCTTTTTCGTTGATGGTCAGAACGACCAGTTCACACCAGCTACCGCGTTCCACGGGGATTCCACACCGGCACTATGGCTATACCCCACCCCAAGATGCCCGCTTAACGTACTGCTGAATGAGGCTTTAATACCTGCCTGGTATATTCCACGTCTGCCCGACAAATAATTGACGAAATTACCGNCACTATTCACTTTCACCCGGTTATCATCGACAAATTCTTTGCGCACAAGCCGNCTTCAGCCACGGNTCAACTTCCATACCGNTCCCCAGACGCATGTTGTAACTCAACGTTGCGCCCAGTTCACGATATATACTGCGGGTATCGACTGATTTCGATTTCATGCCATTGGATAAATGATATTCGGGGTTATCAGCGGTGAAACCCGTTNACGATGCATACNGGGTCAGGGTTCAATTACCATCGGTAAATCGCATTCCCGGTTTCAATGTGACCGCCAANCCCGTTGCTGTNGGTAACTGGCATTGGCGGGTTCANCGGTGGTAATTTTAACCTGGTACGNTACTTTTAAAACGGGTTAAGCTTTACCGAANACCGTNCANNATTGGAAACCCNCTTTTAATGGTTNCCCAACTNGGNN
modifications: misc_feature (1)...(839): n = A,T,C or G
notes: antisense clone insert, portion of the ypjA gene of Escherichia coli
score: log difference in growth for INDUCED vs. UNINDUCED antisense RNA expression ([2]; Escherichia coli, IPTG induction, maximum 10 fold dilution at which a colony was observed): 8
